These results are taken from patent US12366576B2, “Compositions, assays, and methods for direct modulation of fatty acid metabolism” (Dana-Farber Cancer Institute, Inc., priority 2016, dated 2025).

Bridge positions count the residues as written; N and C are the ends. Square brackets hold non-standard residues; d marks the D form. Ends that are not written are not given here. Peptide text beside a SMILES is read from it. S5 = C=CCCC[C@](C)(N)C(=O)O

The target of one experiment is T1, VLCAD (Homo sapiens, UniProt P49748).
T1 construct: 10x His (N); made in house; host or cells: E. coli BL21(DE3), pET19b
T1 sequence (P49748 40-655): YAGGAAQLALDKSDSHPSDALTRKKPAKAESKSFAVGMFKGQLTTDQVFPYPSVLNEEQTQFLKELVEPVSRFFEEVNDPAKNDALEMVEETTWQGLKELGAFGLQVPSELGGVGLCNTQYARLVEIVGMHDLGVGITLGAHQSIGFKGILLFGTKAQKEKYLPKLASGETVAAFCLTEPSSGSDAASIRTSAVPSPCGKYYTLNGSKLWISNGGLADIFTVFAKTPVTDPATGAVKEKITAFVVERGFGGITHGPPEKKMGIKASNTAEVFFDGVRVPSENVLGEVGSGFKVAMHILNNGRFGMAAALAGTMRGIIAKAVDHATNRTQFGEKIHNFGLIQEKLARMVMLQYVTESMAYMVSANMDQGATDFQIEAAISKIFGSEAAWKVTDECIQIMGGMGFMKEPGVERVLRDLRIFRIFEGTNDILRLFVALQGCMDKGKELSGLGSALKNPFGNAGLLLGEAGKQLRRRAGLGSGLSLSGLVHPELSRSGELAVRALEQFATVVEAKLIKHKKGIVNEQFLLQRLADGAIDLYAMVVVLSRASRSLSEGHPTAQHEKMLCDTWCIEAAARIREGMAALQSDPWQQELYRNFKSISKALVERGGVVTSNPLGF
The experiment in a line: Isothermal calorimetry (ITC). The class given is binding. The conditions noted are these: 80 μM recombinant VLCAD, injection of 100 μM peptide, 25° C. The text has this: The alanine mutant peptide panel was then utilized in an isothermal calorimetry (ITC)-based enthalpy screen to assess the relative binding activities of the different peptides to recombinant VLCAD protein (FIG. 19A). Although some differences in binding hierarchy were observed between the pull down (native protein) and ITC (purified recombinant protein) methods, those peptides displaying the strongest and weakest binding activity for VLCAD were similar between the two analyses.
VLCAD. Mature human VLCAD lacking its cleavable leader sequence (aa 40-655) (NP_000009.1) was subcloned into the pET19b vector (Novagen) using NdeI and XhoI restriction sites. Correct insertion was confirmed by DNA sequencing. The 10× His-tagged VLCAD construct was expressed in BL21(DE3) E. coli, and once cells reached an OD of 0.8 after growing at 37° C., they were induced with 0.5 mM […] (IPTG) (Gold Biotechnology I2481C) at 37° C. for 4 hours. Bacterial pellets were resuspended in lysis buffer (500 mM NaCl, 50 mM HEPES, 5% glycerol, pH 7.5, complete protease inhibitor tablet) and lysed by microfluidization (M-110L; Microfluidics). Cell lysates were then cleared by centrifugation at 20,000 rpm for 45 min (Beckman Avanti J-E, rotor type JA-20). Cleared cellular lysates were then subjected to Ni-NTA (QIAGEN) affinity chromatography, followed by elution with 300 mM imidazole (Sigma 12399) and overnight dialysis at 4° C. Dialyzed VLCAD was then concentrated and subjected to size exclusion chromatography (GE Healthcare Life Sciences Superdex 200 10/300 GL) at 4° C. using 150 mM NaCl, 50 mM Tris, pH 8.0. Protein was used upon isolation and was stored at 4° C. for up to two weeks. Successful protein production was confirmed by SDS-PAGE, Western blot, intact MS, and enzymatic activity assay.
A peptide enthalpy screen was performed by adding 80 μM of recombinant VLCAD to the cell in analysis buffer (20 mM HEPES, pH 7.5, 150 mM NaCl, 1 mM TCEP, and 1% DMSO), followed by injection of 2.0 μL of 100 μM peptide by syringe, using an Affinity ITC (TA instruments) at 25° C. Injections were performed in technical triplicate for each peptide. […] Data were analyzed with the NanoAnalyze software package (TA instruments) using a single binding site model and thermodynamic parameters calculated as follows: ΔG=ΔH−TΔS=−RTlnKB, where ΔG, ΔH, and ΔS are the changes in free energy, enthalpy and entropy of binding, respectively.
Turning to `CC(=O)N[C@@H](CCCNC(=N)N)C(=O)N[C@@H](CCCCN)C(=O)N[C@@H](C)C(=O)N[C@@H](CC(C)C)C(=O)N[C@@H](CCC(=O)O)C(=O)N[C@H](C(=O)N[C@@H](CC(C)C)C(=O)N[C@@H](CCCNC(=N)N)C(=O)N[C@@H](CCCNC(=N)N)C(=O)N[C@H](C(=O)NCC(=O)N[C@@H](CC(=O)O)C(=O)NCC(=O)N[C@@H](C)C(=O)N[C@@]1(C)CCCC=CCCC[C@@](C)(C(=O)N[C@H](C(=O)N[C@@H](C)C(=O)N[C@@H](Cc2ccccc2)C(N)=O)[C@@H](C)O)NC(=O)[C@H](Cc2c[nH]cn2)NC(=O)[C@H](CC(N)=O)NC(=O)[C@H](CCCNC(=N)N)NC1=O)C(C)C)[C@@H](C)O` [V220A] (Ac-RKALETLRRVGDGA[S5]RNH[S5]TAF-NH2; staple 15-19; N-terminus and C-terminus assumed), the “relative binding activity for VLCAD (ITC enthalpy screen, consistent with pull down)” value (from here on “relative binding activity for VLCAD”) is on record as “robust binding”.

Take “D218A: biotinylated MCL-1 SAHBD alanine point mutant D218A (RKALETLRRVGAGV[S5]RNH[S5]TAF; staple 15-19; also: biotinylated, place not given here)”: the “relative binding activity for VLCAD” value is on record as “robust binding”.

Take “F228A: biotinylated MCL-1 SAHBD alanine point mutant F228A (RKALETLRRVGDGV[S5]RNH[S5]TAA; staple 15-19; also: biotinylated, place not given here)”: the “relative binding activity for VLCAD” value is recorded as “weak VLCAD association”.

For the molecule “L213A: biotinylated MCL-1 SAHBD alanine point mutant L213A (RKALETARRVGDGV[S5]RNH[S5]TAF; staple 15-19; also: biotinylated, place not given here)”, the “relative binding activity for VLCAD” value was “weak VLCAD association”.

Consider “R207A: biotinylated MCL-1 SAHBD alanine point mutant R207A (AKALETLRRVGDGV[S5]RNH[S5]TAF; staple 15-19; also: biotinylated, place not given here)”, for which the “relative binding activity for VLCAD” value was “weak VLCAD association”.

For the molecule “R214A: biotinylated MCL-1 SAHBD alanine point mutant R214A (RKALETLARVGDGV[S5]RNH[S5]TAF; staple 15-19; also: biotinylated, place not given here)”, the “relative binding activity for VLCAD” value is “weak VLCAD association”.

“R215A: biotinylated MCL-1 SAHBD alanine point mutant R215A (RKALETLRAVGDGV[S5]RNH[S5]TAF; staple 15-19; also: biotinylated, place not given here)”: the “relative binding activity for VLCAD” value is recorded as “weak VLCAD association”.

The same experiment, now with this note: 80 μM recombinant VLCAD, injection of 100 μM peptide, 25° C.; listed as MCL-1 SAHBD V220A.
With `CC(=O)N[C@@H](CCCNC(=N)N)C(=O)N[C@@H](CCCCN)C(=O)N[C@@H](C)C(=O)N[C@@H](CC(C)C)C(=O)N[C@@H](CCC(=O)O)C(=O)N[C@H](C(=O)N[C@@H](CC(C)C)C(=O)N[C@@H](CCCNC(=N)N)C(=O)N[C@@H](CCCNC(=N)N)C(=O)N[C@H](C(=O)NCC(=O)N[C@@H](CC(=O)O)C(=O)NCC(=O)N[C@@H](C)C(=O)N[C@@]1(C)CCCC=CCCC[C@@](C)(C(=O)N[C@H](C(=O)N[C@@H](C)C(=O)N[C@@H](Cc2ccccc2)C(N)=O)[C@@H](C)O)NC(=O)[C@H](Cc2c[nH]cn2)NC(=O)[C@H](CC(N)=O)NC(=O)[C@H](CCCNC(=N)N)NC1=O)C(C)C)[C@@H](C)O` [V220A] (Ac-RKALETLRRVGDGA[S5]RNH[S5]TAF-NH2; staple 15-19; N-terminus and C-terminus assumed), the “relative binding activity for VLCAD” value is “strongest binder”.
